Experimental data reported in US20250346668A1 (GENOR BIOPHARMA, published 2025).
Positions count from the first letter of the chain named. Blank lines part the entries; values can stand above or below the binder they belong to.

Tests used:
[1] = target: T1, human CD3e/g antigen (ACRO, catalog number CDG-H52W5) (human, UniProt P07766 23-126; P09693 23-116); test: SPR (Biacore 8K), antibody captured via anti-human Fc
T1 construct: Bought reagent used as the Biacore analyte; also called hCD3e/g
Description: The equilibrium dissociation constant of binding of CD3 antibodies to human CD3e/g antigen (purchased from ACRO, catalog number CDG-H52W5) was determined by kinetic binding method using Biacore 8K (GE) system. Through the capture method, the carboxylated dextran surface of CM5 chip was first activated with NHS (N-hydroxysuccinimide) and EDC (1-(3-dimethylaminopropyl)-3-ethylcarbodiimide hydrochloride), and then added with an anti-human IgG (Fc) antibody, the free amino group of which could form an amide bond with the activated carboxyl group, thereby being fixed on the chip surface. The anti-human IgG (Fc) antibody could bind to the Fc end of CD3 antibodies to capture the antibodies, and then a series of concentrations of antigen were added to obtain the binding and dissociation curves of antibody and antigen, and the corresponding kinetic constants were calculated by Biacore Evaluation software, as shown in the table below.

CD3 on Jurkat cells [2] = target: T2, CD3 on Jurkat cells (human); test: FACS on Jurkat cells, Alexa 488 secondary antibody, MFI [a]
T2 construct: native, on the surface of Jurkat cells; The sheets print only 'Jurkat'; also called human CD3; TCR/CD3 complex on the human T cell line Jurkat
Description: (§1) Jurkat cells were amplificatorily cultured to 3×10⁶/ml in a T-175 cell culture flask, the culture medium was removed by centrifugation, and the cells were washed twice with PBS buffer (purchased from Invitrogen). After cell counting, the cells were diluted to 2×10⁶ cells/ml with PBS buffer, added with 1% BSA blocking solution, where the percentage was a mass percentage, incubated on ice for 30 minutes, and then washed twice with PBS buffer by centrifugation. The collected cells were suspended to 2×10⁶ cells/mL with FACS buffer (PBS+1% BSA, where the percentage was a mass percentage), and added to a 96-well FACS reaction plate at 100 μl per well, and samples of the purified CD3 antibodies obtained in Example 4 to be tested were added at 100 μl per well, and incubated at 4° C. for 2 hours. The plate was washed twice with FACS buffer by centrifugation, added with 100 μl per well of fluorescent (Alexa 488) labeled secondary antibody (purchased from Jackson), and incubated at 4° C. for 1 hour. After washing 3 times by centrifugation with FACS buffer, the cells were suspended with 100 μl of FACS buffer, and detected and analyzed using BD FACS LSRFortessa (purchased from BD). The results are shown in FIG. 5, where the IgG control is human IgG1 (hIgG).

CD3 on Jurkat cells [3] = target: T2, CD3 on Jurkat cells; test: FACS on Jurkat cells, Alexa 488 secondary antibody, MFI [c]
Description: as §1

Kd [1]: 17.4 nM
koff [1]: 0.00673 s⁻¹
kon [1]: 386000 M⁻¹ s⁻¹
EC50 (read off the curve) (CD3 on Jurkat cells [2]): ~0.3 nM
B2: hAb001-26 (antibody, V domains shown)
VH: QVQLVQSGAEVKKPGASVKVSCKASGYSFTNYYMHWVRQAPGQRLEWIGWTYPGNNNIKYNEKFKGRATITADTSASTAYMELSSLRSEDTAVYYCARDGYGYYFFDYWGQGTLVTVSS
VL: DIVMTQSPDSLAVSLGERATINCKSSQSLLNNRTRKNYLAWYQQKPGQPPKLLIYWASTRESGVPDRFTGSGSGTDFTLTISSLQAEDVAVYYCKQSYTLRTFGGGTKLEIK
notes: Humanized; constant regions not specified

Kd [1]: 21 nM
koff [1]: 0.00823 s⁻¹
kon [1]: 391000 M⁻¹ s⁻¹
EC50 (read off the curve) (CD3 on Jurkat cells [2]): ~0.3 nM
B4: hAb001-27 (antibody, V domains shown)
VH: B2 VH
VL: B2 VL with I21M, N22S, T69S
notes: as for B2

Kd [1]: 20.4 nM
koff [1]: 0.00745 s⁻¹
kon [1]: 365000 M⁻¹ s⁻¹
EC50 (read off the curve) (CD3 on Jurkat cells [2]): ~0.3 nM
B6: hAb001-28 (antibody, V domains shown)
VH: B2 VH
VL: B2 VL with I21M, N22S
notes: as for B2

EC50 (read off the curve) (CD3 on Jurkat cells [3]): ~2 nM
Kd [1]: 18.1 nM
koff [1]: 0.00482 s⁻¹
kon [1]: 266000 M⁻¹ s⁻¹
B7: hAb008-26 (antibody, V domains shown)
VH: QVQLVQSGAEVKKPGASVKVSCKASGYTFTDYTVNWVRQAPGQRLEWIGYINPFNSYTKYNQKFKDRATITADTSASTAYMELSSLRSEDTAVYFCANSVSTYWGQGTTVTVSS
VL: DVVMTQSPLSLPVTLGQPASISCKSSQSLLDSDGKTYLNWLQQRPGQSPRRLIQLVSKLNSGVPDRFSGSGSGTDFTLKISRVEAEDVGVFYCWQGTHFPRTFGGGTKLEIK
notes: as for B2

Second part, the binder before the results:

B1: hAb001-21 (antibody, V domains shown)
VH: B2 VH with A68V
VL: B2 VL with T69S
notes: as for B2
Kd [1]: 16.8 nM
koff [1]: 0.00669 s⁻¹
kon [1]: 398000 M⁻¹ s⁻¹
EC50 (read off the curve) (CD3 on Jurkat cells [2]): ~0.3 nM

B3: hAb001-23 (antibody, V domains shown)
VH: B2 VH with A68V
VL: B2 VL with I21M, N22S, T69S
notes: as for B2
Kd [1]: 17.4 nM
koff [1]: 0.00696 s⁻¹
kon [1]: 401000 M⁻¹ s⁻¹
EC50 (read off the curve) (CD3 on Jurkat cells [2]): ~0.3 nM

B5: hAb001-22 (antibody, V domains shown)
VH: B2 VH with A68V
VL: B2 VL
notes: as for B2
Kd [1]: 20.4 nM
koff [1]: 0.00848 s⁻¹
kon [1]: 416000 M⁻¹ s⁻¹
EC50 (read off the curve) (CD3 on Jurkat cells [2]): ~0.3 nM
